Measurements as given in the nanobody polyreactivity screen of Harvey et al. (2022).

Experiment: yeast display, Sf9 membrane polyspecificity reagent, FACS + sequencing; frameworks hold sequencing errors
Procedure, shortened: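 After 36–48 hours of galactose induction, yeast (Saccharomyces cerevisiae BJ5465) displaying a synthetic nanobody library were stained at 4 °C for 1 hour with 10% biotinylated, detergent-solubilized Sf9 membrane reagent. Streptavidin microbeads enriched the stained cells before FACS sorting into low and high (top ~1%) gates on anti-HA and streptavidin fluorescence. Each clone's polyreactivity label reflects its gate of origin.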

Sequence | polyreactivity (PSR sort gate)
QVQLVESGGGLDQAGGSLRLSCAAYGRILHFYAMGWYRQAPGKERELVSAIRWSSGRTYYADSVKGRFTISRDNAKNTVYLQMNSLKPEDTAVYYCAANNGYGMDYWGQGTQVTVSS | high polyreactivity
QVQLVESGGGLDQAGGSLRLSCAPSGSIFKRNAMGWYRQAPGKARELVAAISKSSGSTYYADSVKGRFTISRDNAKNTVYLQMNSLKPEDYAVYYCAAKYYSYVDKYYYWGQGTQVTVSS | high polyreactivity
QVQLVESGGGLDQAGGSLRLSCASSGFTFGRYAMGWYRQAPGKERELVDTITRSGVNTYYADSVKGRFTISRDNAKNTVYLQMNSLKPEDTAVSYCNVRYPLATYRLPAGEFDYWGQGTQVTVSS | high polyreactivity
QVQLVESGGGLDQAGGSLRLSFAASGLIFAVYAMGWYRQAPGKERELVAGISASAASTYYADSVKGRFTISRDNAKNTVYLQMNSLKPEDTAVYYCAAGFYRRGKYDYWGQGTQVTVSS | high polyreactivity
QVQLVESGGGLDQAGGSLRLSFAASGSTFVPNVMGWYRQAPGKERELVASITSGGITNYADSVKGRFTISRDNAKNTVYLQMNSLKPEDTAVKGDYWGQGTQVTVSS | low polyreactivity
QVQLVESGGGLDQAGGSLRLSSAASGFIFWFNAMRWYRQAPGTERELVATISRSDTSTYYADSVKGRFTISRDNAKNSVYLQMNSLKPEDTAVYYCATDVRETWLPEYYWGQGTEVTVSS | low polyreactivity
QVQLVESGGGLDQAGGSLRLSSAASGLTFFSEYAMGLYRQPPGIERELVASIDWSGDSTYYADSVKGRFTISRDNAMKTVYLQMNSLKPEYTAVYYCAKDYSTEISQEYYYWVQGTQVTVSS | high polyreactivity
QVQLVESGGGLDQAGGSLRLSSAASGLTFVTYAMGWYRQAPGTERELVAAISYSGGSTYYADSVKGRFTISRDNAKNTVYLQMNSLKPEDTAVYYCNARSPQPDGRPPYNYWGQGTQVTVSS | high polyreactivity
QVQLVESGGGLDQAGGSLRLSSAASGSIFLPNAMGWYRQAPGKEREFVADISWTGGRTYYADSVKGRFTISRDNAKHTVYLQMNRLKQEDTAVYYCAAKQYRYGLDYWGQGTQVTVSS | high polyreactivity
QVQLVESGGGLDQAGGSLRLSWAASGITFGWYAKGWYRLAPGKERELVASISSSGSTNYADSVKGRLTISRDNAKNTVYLQMNSQKTEDTAVYYCNKDYLLRHFYIYVIEGDYWGQGTKVTVSS | low polyreactivity
QVQLVESGGGLDQAGGSLRLTCAASGFIIHRYAMAWYRQGPGTEMELVAAISRSGVSTNYADSVKGRFTISRDNPKNTVYLHMYSLKTEDTSVYYCASPYYSYQSYKYWGKGTQVTVSS | high polyreactivity
QVQLVESGGGLDQAGGSLRLTCAASGRTFSRNAMGWYRQAPGKERELVAAISGSGGTTYYADSVKGRFTISRDNAKNTVYLQMKSLKPEDTAVYYCAADLRYAWVFWYEYWGLGTQVTVSS | low polyreactivity
QVQLVESGGGLDQAGGSLRLTCAAYGSTFRYNAMGWYRQAHGKERELVAAIDKRGDSTYADSVKGSFTISRDNAKNTVYLQMNSMNPDDTAVYYCAADSDSKYYYGFLLDTYEYWGQATQVTVSS | low polyreactivity
QVQLVESGGGLDQAGGSLRSSCAASGRIFPSYAMGWYRQAPGKERELVAAISRSGGSTYYADSVKGRFTISRDNAKNTVDLQMICLKPEDTGVYYCAKQVYSGYSTRARSRYYEYYYWGQGNQVTVSS | high polyreactivity
QVQLVESGGGLDQAGGTLRLSSAASGFTFGSYAMRWYRQAHGKERELVAAITRSGSTTYYADSVKGRFTISRDNAKNTFFLQMNSLKPEDTAVDYCNAYTVRSYRFDYWGQGTQVTVSS | high polyreactivity
QVQLVESGGGLDQARGSLRLSCAASGFTFNYYAMGWYRQAPGKERELVAAISSSGGSTYYADSVKGRFTISRDNAKNTVYLQMNSLKPDDTAVYYCAAPVLPGYNYWGQGTQVTVSS | high polyreactivity
QVQLVESGGGLDQARGSLRLSCAASGRTFSSNAMGWYRQAPWKERELVAAISSSGAGTYYADSVKGRFTISRDNAKNTVYLQMNSLKPEDTAVYYCAARANSYHSFTSHYDYWGQGTQVTVSS | low polyreactivity
QVQLVESGGGLDQARGSLRLSCAASGSTLALYTMGWNRQATGKETELVAAISKNGGRTYYADSVKGRFTISRDNAKNTVYLQMYSLKPEDTAVYYCAAASGSYRGYDFWGQGSQVTVSS | high polyreactivity
QVQLVESGGGLDQAVGSLPLSCAASGRTFYLNTRGWYREAPWKEREFVAAISATAGRTYYADSVKGRFTISRDNAKNTVYLQMYSLKPEDTAVYYCAAVPLRIRWPNSSPALDYWGQGTQVTVSS | high polyreactivity
QVQLVESGGGLDQAVGSLRLSSAASGTTFDKNDMGLYRQAPAKERELVAAISGGSTNYADSVKGRFTISRDNAKNTVYLQMNSLKPEDTAVYYCAARPHAHSDYWGQGTQVTVSS | low polyreactivity
QVQLVESGGGLEQAGGRLRLSCAASGFTFDFYAMGWYRQAPGKERQLVAAISKNDGTTYYADSVKGRFTISRDNAKNTVYLQMNSLKPEDTAVYYCAAESGYPVYTYVSSGDYWGQGTQVTVSS | low polyreactivity
QVQLVESGGGLFHAGGSLRLSCAASGSIFVRNVMGGYRQAPGKERELVAAISRSGVSTYYADSVKGRFTISRDNAKNTVSLQMNSLKPEDTAVSYCNAGWRRRNSTGYPWGYDYWGQGTQVTVSS | high polyreactivity
QVQLVESGGGLFKAGGSLRLSCAASGLIFWGYTMAWSRQAPGKERELVAAISRRGGRTYYAASVMGRFTISRDNAKNTVYLQMNTLKPEDTAVDYCKADITSSGPKSDYWGQGTQVTVSS | high polyreactivity
QVQLVESGGGLFKAGGSLRLSCAASGRTFRGYTMGWYRQAPGKERELVAAITSGTRTNYADSVKGRFTISRDNAKNTVYLQMNSLKPEYTAVYYGAARDYIRPRYRPYDYWGHGTQVTVSS | high polyreactivity
QVQLVESGGGLFKEGGSLRLSCAASASYFWFNAMGWYRQAPGKEREFGASISRSGGTTYYADSVKGRFTISRDNAKNTVYLQMKSVIPEDTAVYYCNARAFGTGVGTGYFGKDRYDYWGQGSQVTVSS | low polyreactivity
QVQLVESGGGLFQAGGILRLSCAASGYTFPDYAMGWYRQAPGKEREFVATISWSGTSTYYADSVKGRFTISRDNAKNTVYLQMNSLTTEDTAVYYCNKTPSSWPDLYSYNYWGQGTQVTVSS | low polyreactivity
QVQLVESGGGLFQAGGRLRLSCAPSGSNFVGYVMGWYRQAPGKERELVARIRWGGGRTYYADSVKGRFTISRDNAKNTVYLQMNSLKPEDTAVYFCAAETWWRTRIYDYWGQGTQGTVSS | high polyreactivity
QVQLVESGGGLFQAGGSHRLSCAASGRIFPSYAMGWYRQAPGTQRELVAAIPRGGASTYYADSVKGRFTISRDIAQNTVYLQMNSLKPEDTAVYYCAARRSYTYGRDYWGQGTQVTVSS | high polyreactivity
QVQLVESGGGLFQAGGSLRISCAASGRTFSYYAMGWYRQAPVKERELVAAISWSGVITYYADSVKGRFTISRDNAKNTVYLQMNSMKPEDTAVYYCASRPYWSEFDYDYWGQGTQVTLSS | low polyreactivity
QVQLVESGGGLFQAGGSLRLICAASGITFEYNTMGWYRQAAGKERELVAAITSDGGSTYYADSVKGRFSISRDNAKNTVYLQMNSLKPEDTAVYYFAAVFYDQYYYWGQGTQVTVSS | high polyreactivity
